Molecular target: T1, 35 kDa protein of Oplophorus luciferase (native, purified from Oplophorus gracilirostris) (Oplophorus gracilirostris, UniProt Q9GV46 40-359)
T1 sequence: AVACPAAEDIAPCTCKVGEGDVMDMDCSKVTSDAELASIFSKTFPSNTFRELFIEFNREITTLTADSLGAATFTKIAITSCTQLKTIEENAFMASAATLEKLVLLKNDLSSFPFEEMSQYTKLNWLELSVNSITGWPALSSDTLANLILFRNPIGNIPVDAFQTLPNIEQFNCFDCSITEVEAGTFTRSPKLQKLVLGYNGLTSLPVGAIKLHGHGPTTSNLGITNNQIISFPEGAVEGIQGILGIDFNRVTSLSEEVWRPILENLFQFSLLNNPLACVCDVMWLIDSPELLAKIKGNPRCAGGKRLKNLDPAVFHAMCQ
Test: gel filtration of native luciferase (about 106 kDa) against SDS-PAGE and SDS gel filtration HPLC (35 kDa and 19 kDa components)
Method: The deep-sea luminous shrimp (Oplophorus gracilirostris) obtained in the Suruga Bay, Shizuoka, Japan were used as a starting material. A crude extract containing Oplophorus luciferase was prepared in the same manner as disclosed by Shimomura, et al., in Biochemistry 17 (1978) and further purified by chromatography in two steps. The first step was by hydrophobic interaction chromatography on a column of butyl Sepharose 4 Fast Flow (Pharmacia; 0.7 cm×3.5 cm) using 20 mM Tris-HCl, pH 8.5, eluting with decreasing concentrations of ammonium sulfate starting at 1.5 M. The second step was by gel filtration on a column of Superdex 200 Prep (Pharmacia; 1 cm×48 cm) in 20 mM Tris-HCl, pH 8.5, containing 50 mM NaCl. The molecular weight of Oplophorus luciferase was estimated to be about 106 kDa by gel filtration on the same column when compared with the molecular weight markers as follows: (a) amylase (200 kDa); (b) alcohol dehydrogenase (150 kDa); (c) bovine serum albumin (67 kDa); (d) ovalbumin (45 kDa); (e) carbonic anhydrase (29 kDa); and (f) ribonuclease (13.7 kDa).
SDS-PAGE analysis (12% polyacrylamide gel) of the purified samples gave two major protein bands corresponding to molecular weights of 35 kDa and 19 kDa, respectively. […]

B1: 19 kDa protein of Oplophorus luciferase (native, purified from Oplophorus gracilirostris) (enzyme)
chain: FTLADFVGDWQQTAGYNQDQVLEQGGLSSLFQALGVSVTPIQKVVLSGENGLKADIHVIIPYEGLSGFQMGLIEMIFKVVYPVDDHHFKIILHYGTLVIDGVTPNMIDYFGRPYPGIAVFDGKQITVTGTLWNGNKIYDERLINPDGSLLFRVTINGVTGWRLCENILA
notes: also called 19 kDa photoprotein
- binding result: binds

— US20040002127A1 (CHISSO, published 2004)
